Measured values published in patent publication US20160347808A1 (IMMATICS BIOTECHNOLOGIES, published 2016).
Square brackets hold non-standard residues; d marks the D form. Ends that are not written are not given here. pS = N[C@@H](COP(=O)(O)O)C(=O)O

B1: peptide RLLJPLSSA (SEQ ID NO 179) (peptide)
peptide: RLL[pS]PLSSA
notes: Printed with J for phosphoserine; the plain residue at position 4 is serine

These binders were tested against T1, HLA-A*02:01 (peptide-receptive MHC class I monomer from UV-ligand exchange) (human) (assay: UV-exchange ELISA (anti-b2m); exchange yield grade: + >=10%, ++ >=20%, +++ >=50%, ++++ >=75%).
T1 construct: Monomers were captured on streptavidin-coated plates
Excerpt: Candidate peptides for T cell based therapies according to the present invention were further tested for their MHC binding capacity (affinity). The individual peptide-MHC complexes were produced by UV-ligand exchange, where a UV-sensitive peptide is cleaved upon UV-irradiation, and exchanged with the peptide of interest as analyzed. Only peptide candidates that can effectively bind and stabilize the peptide-receptive MHC molecules prevent dissociation of the MHC complexes. To determine the yield of the exchange reaction, an ELISA was performed based on the detection of the light chain (β2m) of stabilized MHC complexes. The assay was performed as generally described in Rodenko et al. (Rodenko et al., 2006).
96 well MAXISorp plates (NUNC) were coated over night with 2 ug/ml streptavidin in PBS at room temperature, washed 4× and blocked for 1 h at 37° C. in 2% BSA containing blocking buffer. Refolded HLA-A*02:01/MLA-001 monomers served as standards, covering the range of 15-500 ng/ml. Peptide-MHC monomers of the UV-exchange reaction were diluted 100 fold in blocking buffer. Samples were incubated for 1 h at 37° C., washed four times, incubated with 2 ug/ml HRP conjugated anti-β2m for 1 h at 37° C., washed again and detected with TMB solution that is stopped with […]. Absorption was measured at 450 nm. Candidate peptides that show a high exchange yield (preferably higher than 50%, most preferred higher than 75%) are generally preferred for a generation and production of antibodies or fragments thereof, and/or T cell receptors or fragments thereof, as they show sufficient avidity to the MHC molecules and prevent dissociation of the MHC complexes.

Question: For YLFREPATI [peptide YLFREPATI (SEQ ID NO 178)], which peptide exchange yield is on record?
Answer: Its peptide exchange yield is 20 to 50%.

Question: With ALLQGAIESV [peptide ALLQGAIESV (SEQ ID NO 177)] as the binder, how does the peptide exchange yield read?
Answer: The peptide exchange yield was 50 to 75%.

Question: How did the peptide exchange yield turn out when ALAELLHGA [peptide ALAELLHGA (SEQ ID NO 45)] was run?
Answer: Its peptide exchange yield is 50 to 75%.

Question: How did the peptide exchange yield turn out when LLYGKYVSV [peptide LLYGKYVSV (SEQ ID NO 31)] was run?
Answer: The peptide exchange yield was 50 to 75%.

Question: How did the peptide exchange yield turn out when RLIPDTLYSV [peptide RLIPDTLYSV (SEQ ID NO 3)] was run?
Answer: Its peptide exchange yield is no less than 75%.

Question: Which peptide exchange yield does the source give for ALAGGITMV [peptide ALAGGITMV (SEQ ID NO 170)] here?
Answer: Its peptide exchange yield is 50 to 75%.

Question: For GLSSAYGGL [peptide GLSSAYGGL (SEQ ID NO 30)], which peptide exchange yield is on record?
Answer: Its peptide exchange yield is 10 to 20%.

Question: KMSEKILLL [peptide KMSEKILLL (SEQ ID NO 186)] was tested. Which peptide exchange yield did it give?
Answer: The peptide exchange yield was 50 to 75%.

Question: GLHNVVYGI [peptide GLHNVVYGI (SEQ ID NO 187)] was tested. Which peptide exchange yield did it give?
Answer: Its peptide exchange yield is 50 to 75%.

Question: For GLDDRYSLV [peptide GLDDRYSLV (SEQ ID NO 46)], which peptide exchange yield is on record?
Answer: The peptide exchange yield was 50 to 75%.

Question: SLAPTPVSA [peptide SLAPTPVSA (SEQ ID NO 38)] was tested. Which peptide exchange yield did it give?
Answer: The peptide exchange yield was 20 to 50%.

Question: Which peptide exchange yield does the source give for ALSNVIHKV [peptide ALSNVIHKV (SEQ ID NO 40)] here?
Answer: Its peptide exchange yield is 20 to 50%.

Question: With RLLDFPEAMVL [peptide RLLDFPEAMVL (SEQ ID NO 165)] as the binder, how does the peptide exchange yield read?
Answer: The peptide exchange yield was no less than 75%.

Question: With RLQETEGMVAV [peptide RLQETEGMVAV (SEQ ID NO 171)] as the binder, how does the peptide exchange yield read?
Answer: Its peptide exchange yield is 20 to 50%.

Question: GLLESPSIFNFTA [peptide GLLESPSIFNFTA (SEQ ID NO 36)] was tested. Which peptide exchange yield did it give?
Answer: Its peptide exchange yield is 50 to 75%.

Question: For RLYTKLLNEA [peptide RLYTKLLNEA (SEQ ID NO 19)], which peptide exchange yield is on record?
Answer: Its peptide exchange yield is 50 to 75%.

Question: Which peptide exchange yield does the source give for VLVDQSWVL [peptide VLVDQSWVL (SEQ ID NO 16)] here?
Answer: Its peptide exchange yield is 50 to 75%.

Question: Which peptide exchange yield does the source give for GLLEARGILGL [peptide GLLEARGILGL (SEQ ID NO 166)] here?
Answer: Its peptide exchange yield is 50 to 75%.

Question: How did the peptide exchange yield turn out when TLLGGKEAQALGV [peptide TLLGGKEAQALGV (SEQ ID NO 175)] was run?
Answer: Its peptide exchange yield is 50 to 75%.

Question: For SILDDSFKL [peptide SILDDSFKL (SEQ ID NO 42)], which peptide exchange yield is on record?
Answer: Its peptide exchange yield is no less than 75%.

Question: With TLQEVVTGV [peptide TLQEVVTGV (SEQ ID NO 183)] as the binder, how does the peptide exchange yield read?
Answer: The peptide exchange yield was 50 to 75%.

Question: How did the peptide exchange yield turn out when SLNKWIFTV [peptide SLNKWIFTV (SEQ ID NO 182)] was run?
Answer: Its peptide exchange yield is no less than 75%.

Question: With FLDASDPAL [peptide FLDASDPAL (SEQ ID NO 48)] as the binder, how does the peptide exchange yield read?
Answer: The peptide exchange yield was 20 to 50%.

Question: With ILDDSFKLL [peptide ILDDSFKLL (SEQ ID NO 41)] as the binder, how does the peptide exchange yield read?
Answer: The peptide exchange yield was 20 to 50%.

Question: For B1, which peptide exchange yield is on record?
Answer: The peptide exchange yield was 50 to 75%.

Question: QVWEIQHTV [peptide QVWEIQHTV (SEQ ID NO 51)] was tested. Which peptide exchange yield did it give?
Answer: Its peptide exchange yield is 20 to 50%.

Question: TLDAAQPRV [peptide TLDAAQPRV (SEQ ID NO 43)] was tested. Which peptide exchange yield did it give?
Answer: Its peptide exchange yield is 20 to 50%.

Question: Which peptide exchange yield does the source give for QMLDVAIRV [peptide QMLDVAIRV (SEQ ID NO 29)] here?
Answer: Its peptide exchange yield is 50 to 75%.

Question: Which peptide exchange yield does the source give for FLDANGHFV [peptide FLDANGHFV (SEQ ID NO 23)] here?
Answer: Its peptide exchange yield is 50 to 75%.

Question: For AMAEMVLQV [peptide AMAEMVLQV (SEQ ID NO 190)], which peptide exchange yield is on record?
Answer: The peptide exchange yield was 50 to 75%.

Question: How did the peptide exchange yield turn out when YLKDGDVML [peptide YLKDGDVML (SEQ ID NO 20)] was run?
Answer: The peptide exchange yield was 50 to 75%.

Question: RLAELTVDEFL [peptide RLAELTVDEFL (SEQ ID NO 4)] was tested. Which peptide exchange yield did it give?
Answer: The peptide exchange yield was 50 to 75%.

Question: For FLVDGPRVQL [peptide FLVDGPRVQL (SEQ ID NO 188)], which peptide exchange yield is on record?
Answer: The peptide exchange yield was 50 to 75%.

Question: For KLNTETFGV [peptide KLNTETFGV (SEQ ID NO 32)], which peptide exchange yield is on record?
Answer: The peptide exchange yield was 20 to 50%.

Question: For GLASKENFSNVSL [peptide GLASKENFSNVSL (SEQ ID NO 26)], which peptide exchange yield is on record?
Answer: The peptide exchange yield was 20 to 50%.

Question: Which peptide exchange yield does the source give for KMLDEILLQL [peptide KMLDEILLQL (SEQ ID NO 164)] here?
Answer: Its peptide exchange yield is no less than 75%.

Question: GLIRFPLMTI [peptide GLIRFPLMTI (SEQ ID NO 168)] was tested. Which peptide exchange yield did it give?
Answer: Its peptide exchange yield is 50 to 75%.

Question: With AISEVIGKITA [peptide AISEVIGKITA (SEQ ID NO 189)] as the binder, how does the peptide exchange yield read?
Answer: Its peptide exchange yield is 50 to 75%.

Question: How did the peptide exchange yield turn out when ALLPRYFFL [peptide ALLPRYFFL (SEQ ID NO 2)] was run?
Answer: The peptide exchange yield was 20 to 50%.

Question: Which peptide exchange yield does the source give for GLFAGLGGAGA [peptide GLFAGLGGAGA (SEQ ID NO 37)] here?
Answer: The peptide exchange yield was 50 to 75%.

Question: ILLDDNMQIRL [peptide ILLDDNMQIRL (SEQ ID NO 174)] was tested. Which peptide exchange yield did it give?
Answer: The peptide exchange yield was no less than 75%.

Question: Which peptide exchange yield does the source give for NLFDLGGQYLRV [peptide NLFDLGGQYLRV (SEQ ID NO 181)] here?
Answer: Its peptide exchange yield is 50 to 75%.

Question: SLLDENNVSSYL [peptide SLLDENNVSSYL (SEQ ID NO 184)] was tested. Which peptide exchange yield did it give?
Answer: The peptide exchange yield was 50 to 75%.

Question: Which peptide exchange yield does the source give for SLESKLTSV [peptide SLESKLTSV (SEQ ID NO 44)] here?
Answer: Its peptide exchange yield is 50 to 75%.

Question: With KLGDLMVLL [peptide KLGDLMVLL (SEQ ID NO 173)] as the binder, how does the peptide exchange yield read?
Answer: The peptide exchange yield was 50 to 75%.

Question: For LLADEDSSYL [peptide LLADEDSSYL (SEQ ID NO 27)], which peptide exchange yield is on record?
Answer: The peptide exchange yield was 20 to 50%.

Question: With ALTEIQEFI [peptide ALTEIQEFI (SEQ ID NO 28)] as the binder, how does the peptide exchange yield read?
Answer: Its peptide exchange yield is no less than 75%.

Question: Which peptide exchange yield does the source give for SVIDHIHLISV [peptide SVIDHIHLISV (SEQ ID NO 167)] here?
Answer: Its peptide exchange yield is 50 to 75%.

Question: ALAAARVEL [peptide ALAAARVEL (SEQ ID NO 17)] was tested. Which peptide exchange yield did it give?
Answer: The peptide exchange yield was 50 to 75%.

Question: For VLDGVLMEL [peptide VLDGVLMEL (SEQ ID NO 24)], which peptide exchange yield is on record?
Answer: Its peptide exchange yield is 50 to 75%.

Question: How did the peptide exchange yield turn out when RTLDKVLEV [peptide RTLDKVLEV (SEQ ID NO 176)] was run?
Answer: Its peptide exchange yield is 20 to 50%.

Question: For ILLEKSVSV [peptide ILLEKSVSV (SEQ ID NO 34)], which peptide exchange yield is on record?
Answer: The peptide exchange yield was 50 to 75%.

Question: How did the peptide exchange yield turn out when SLADRLIGV [peptide SLADRLIGV (SEQ ID NO 25)] was run?
Answer: Its peptide exchange yield is no less than 75%.

Question: FLSSLKGGLL [peptide FLSSLKGGLL (SEQ ID NO 18)] was tested. Which peptide exchange yield did it give?
Answer: Its peptide exchange yield is 50 to 75%.

Question: For WLFDDGGLTL [peptide WLFDDGGLTL (SEQ ID NO 5)], which peptide exchange yield is on record?
Answer: Its peptide exchange yield is no less than 75%.

Question: ALDSSNSMQTI [peptide ALDSSNSMQTI (SEQ ID NO 52)] was tested. Which peptide exchange yield did it give?
Answer: The peptide exchange yield was 20 to 50%.

Question: With QLFSEIHNL [peptide QLFSEIHNL (SEQ ID NO 191)] as the binder, how does the peptide exchange yield read?
Answer: Its peptide exchange yield is no less than 75%.

Question: How did the peptide exchange yield turn out when ALWEKNTHL [peptide ALWEKNTHL (SEQ ID NO 33)] was run?
Answer: Its peptide exchange yield is 50 to 75%.

Question: For VLIDHRWVL [peptide VLIDHRWVL (SEQ ID NO 21)], which peptide exchange yield is on record?
Answer: The peptide exchange yield was 50 to 75%.

Question: Which peptide exchange yield does the source give for VLYTGVVRV [peptide VLYTGVVRV (SEQ ID NO 185)] here?
Answer: The peptide exchange yield was 50 to 75%.

Question: How did the peptide exchange yield turn out when LLLDTVTMQV [peptide LLLDTVTMQV (SEQ ID NO 172)] was run?
Answer: Its peptide exchange yield is 50 to 75%.

Question: For KLYERCEVV [peptide KLYERCEVV (SEQ ID NO 47)], which peptide exchange yield is on record?
Answer: The peptide exchange yield was 20 to 50%.

Question: For KLLDLTVRI [peptide KLLDLTVRI (SEQ ID NO 35)], which peptide exchange yield is on record?
Answer: The peptide exchange yield was 50 to 75%.

Question: For TLMAEMHVV [peptide TLMAEMHVV (SEQ ID NO 50)], which peptide exchange yield is on record?
Answer: Its peptide exchange yield is 50 to 75%.

Question: For YLAHFIEGL [peptide YLAHFIEGL (SEQ ID NO 169)], which peptide exchange yield is on record?
Answer: The peptide exchange yield was 50 to 75%.

Question: For GLIDEVMVL (also called CYP2W1-001) [peptide GLIDEVMVL (SEQ ID NO 22)], which peptide exchange yield is on record?
Answer: Its peptide exchange yield is 50 to 75%.
